In PMC9307002, “Carboxyl Methyltransferase Catalysed Formation of Mono‐ and Dimethyl Esters under Aqueous Conditions: Application in Cascade Biocatalysis” (Angewandte Chemie (International Ed. in English), 2022):

Assays:
Experiment in all cases: methyltransferase kinetics
Type in all cases: biochemical, Aspergillus fumigatus
Conditions in all cases: methyl donor SAM
[1] = substrate: COC(=O)c1ccc(C(=O)O)o1
[2] = substrate: O=C(O)c1ccc(C(=O)O)cc1
[3] = substrate: O=C(O)c1ccc(C(=O)O)o1
[4] = substrate: O=C(O)/C=C/C(=O)N[C@@H](Cc1ccc(O)cc1)C(=O)O
[5] = substrate: COC(=O)c1ccc(C(=O)O)cc1

B1: FtpM (Aspergillus fumigatus Af293) (protein)
chain: MTQSNGNAVSSASDPYRLNRNIAASTRLSLQHYIWKENMGYLLHPSIDVSRPDLAIADVGTGTAIWILDLLRQLPNAKFHGFDISSEQYPAPGFLPPNVSLSKLDILGEIPEEYREKFDVVHARLLVQVVNQAGSDPVPVIRNMMKLLKPGGYLQWEEPNDDASKRPIVKADPANSSENAEKLLQRLDARFRAATPASWSVALAETFKEQGLQNVVREEFSTDTYLLLLDQTNYLGLFGELISKLDGDLKEELTQLHANTVAEARKGLSWKVRRFAFLGQKP
notes: recombinant, C-terminal His-tag; dimer (modelled)
**Q.** Which Km [1] does the source give for B1 here?
**A.** Its Km is 1400 µM.

**Q.** What about the kcat [1] of the same protein?
**A.** The kcat was 8.3e-05 s⁻¹.

**Q.** What about the Km [2] of the same protein?
**A.** The Km was 72 µM.

**Q.** What about the kcat [2] of the same protein?
**A.** The kcat was 0.0148 s⁻¹.

**Q.** What about the Km [3] of the same protein?
**A.** Its Km is 520 µM.

**Q.** What about the kcat [3] of the same protein?
**A.** The kcat was 0.00033 s⁻¹.

**Q.** What about the Km [4] of the same protein?
**A.** Its Km is 680 µM.

**Q.** And the kcat [4]?
**A.** The kcat was 0.00105 s⁻¹.

**Q.** What about the Km [5] of the same protein?
**A.** Its Km is 1510 µM.

**Q.** And the kcat [5]?
**A.** The kcat was 8.17e-05 s⁻¹.
